Reference: patent US6699834B1, “Method for treating cancer” (University of Maryland Biotechnology Institute, priority 1997, dated 2004)

B1: rβhCG: recombinant β subunit expressed in mouse cells (Sigma) (protein, UniProt P0DN86 21-165, looked up)
Choriogonadotropin subunit …: SKEPLRPRCRPINATLAVEKEGCPVCITVNTTICAGYCPTMTRVLQGVLPALPQVVCNYRDVRFESIRLPGCPRGVNPVVSYAVALSCQCALCRRSTTDCGGPKDHPLTCDDPRFQDSSSSKAPPPSLPSPSRLPGPSDTPILPQ
B2: βhCG: purified native β subunit of hCG (Sigma) (protein, UniProt P0DN86 21-165, looked up)
Choriogonadotropin subunit …: SKEPLRPRCRPINATLAVEKEGCPVCITVNTTICAGYCPTMTRVLQGVLPALPQVVCNYRDVRFESIRLPGCPRGVNPVVSYAVALSCQCALCRRSTTDCGGPKDHPLTCDDPRFQDSSSSKAPPPSLPSPSRLPGPSDTPILPQ
modifications: native beta subunit only

Tests used:
[1] = test system: HIV-1; conditions: for HIV in vitro Inhibition: inhibition of HIV-1 replication in vitro (HIV-1 strains and HIV-1 primary isolates)
From the text: To prepare HIV infected cells for the in vitro assay of hCG preparations and β-hCG peptides and derivatives, primary PBMCs, macrophages, and CD4^+ T cells isolated from peripheral blood and the H9 human T cell line, were acutely or chronically infected with 8 different HIV-1 strains: 4 cell line adapted viruses, namely the macrophage tropic Ba-L strain (Gartner et al., 1986, Science 233:215-219) and the CD4^+ T cell tropic MN, RF, and IIIB strains (10^5 TCID50/ml) (Popovic et al., 1984, Science […]; Gallo et al.; 1984, Science 224:500-503); 2 isolates, Ju1083 and G3, from Nigerian AIDS patients passed once in a CD4^+ T cell line (Sub-T1); and 2 primary (“clinical”) isolates from AIDS patients from Trinidad which were never passed in any cell line and were used at a titer of 7.5×10^4TCID50/ml. In all experiments; HIV1 (10^5 TCID50/ml) was added to the cells(10^6 cells/ml) for a 2 hour incubation after which the virus infected cells were washed with 10 ml phosphate buffered saline (PBS) three times to eliminate extra cellular virus. The test inhibitor, i.e. the hCG or β-hCG peptide preparation was then added and the cells were incubated with the test inhibiter for 9 to 10 days with serial sampling. Cultures were assayed for p24 antigen on days 3 to 10.
Peptides of the α- and β-subunits (0.05 to 50 nmoles/ml), native α chain preparation, and various crude preparations of the native hCG heterodimer (0.01 to 1,000 IU) and the native β-hCG subunit (100 to 1,000 μg) were tested for effects on HIV-1 replication in acutely infected cells-by measuring change in viral antigen levels in response to the above noted preparations (FIGS. 4A-D and Table 3).
The fractions were then tested for anti-HIV, anti-KS and pro-hematopoietic activities in vitro. To assay for inhibition of HIV-1 replication in vitro, the HIV-1 […] viral strain was used to infect PBMCs and PM-1 cells (derived from the HUT-78 T-cell lymphoma cell line) at 10^3 TCID50/ml as described in detail herein.

[2] = test system: HIV RNA and protein expression; assay: HIV RNA and protein expression in HIV-1 transgenic mice; format: in vivo; conditions: inhibition of HIV RNA and protein expression in HIV-1 transgenic mice
From the text: (§1) The HIV-1 transgenic mice used for this study contain 7.4 kb of foreign DNA, including 5.1 kb of the HIV-1 proviral genome deleted in the gag and pol genes and 2.3 kb of vector (Dickie et al., 1991, Virology 185:109-119). […] In addition, these mice develop severe hyperkeratotic skin lesions with marked expression of gp 120 and nef genes (Kopp et al., 1993, AIDS Res. Hum. Retroviruses 9:267-275; Vasli et al., 1994, AIDS Res. Hum. Retroviruses 10:1241-1250).
Heterozygous transgenic mothers were treated with the hCG preparation subcutaneously twice weekly. Pups received hCG via the mother's milk.
Gene expression was assayed in total RNA extracted from the skin of Tg26 mice with RNAzol. One microgram of RNA was reverse transcribed into cDNA using random hexamer primers and […] reverse transcriptase (Life Technologies, MD) in a final volume of 30 μl. One tenth of the cDNA reactions were used for PCR amplification of various HIV gene sequences (env, tat, rev, nef and vif). In addition, glyceraldehyde 3-phosphate dehydrogenase (GAPHD) mRNA was amplified for each sample for normalization. […] Detection was performed by chemiluminescence (Amersham) and relative mRNA levels determined by densitometry after normalization with GAPDH mRNA levels. […]

[3] = test system: Kaposi's Sarcoma induced in mice; assay: Kaposi's Sarcoma tumors induced in mice by KS Y-1 cells; format: in vivo; conditions: inhibition of Kaposi's Sarcoma induced in mice
Protocol: The effects of the peptides on KS tumor cells were also evaluated in vivo in the KS mouse model. To induce KS tumors in the mice, 1×10^6/ml KS Y-1 cells in 50 μl PBS or saline were injected subcutaneously into immunodeficient mice (beige-XID-BNX mice). […] Methods for detection of apoptosis (from tissue biopsies) were used, as described in Lunardi-Iskandar et al.(1995, Nature 375:64-68). Briefly, the samples were stained in situ for the presence of cells with DNA fragmentation. Tissue slides from formalin-fixed tumors were treated with terminal deoxynucleotide transferase for extension of DNA ends (hydroxyl 3′) and incorporation of digoxigenin-11-dUTP according to the manufacturer's instructions (Oncor, Gaithersburg, Md.). Anti-digoxigenin antibody conjugated with the enzyme peroxidase allowed detection of apoptotic cells, which stain brown, whereas viable cells stain blue.
Certain fractions were tested for activity in reducing Kaposi's Sarcoma lesions in the Kaposi's Sarcoma mouse model as described herein. In this assay, starting one week after injection of the KS Y-1 cells to induce Kaposi's sarcoma formation, the mice were injected subcutaneously with 100 IU hCG. […] After one week of the week of treatment with the hCG fractions, the KS lesions were examined for cell apoptosis and regression as described herein. […]

[4] = test system: HIV-1 transgenic mice; assay: Survival, growth and weight of HIV-1 transgenic mouse pups; format: in vivo; conditions: administered first 5 days after birth through mothers milk
Protocol: as §1
Finally, certain fractions were tested for their ability to increase survival, promote weight gain and reduce HIV-1 gene expression in HIV-1 transgenic mice as described herein.
HIV-I transgenic pups administered hCG and hCG-related preparations for the first 5 days after birth through the mothers milk were monitored for survival at 10 days after birth.

[5] = test system: KS Y-1 and KS-SLK cells; assay: Kaposi's Sarcoma clonogenic assay in cultured cells; format: cell-based, human; conditions: for KS in vitro: inhibition of Kaposi's Sarcoma cell growth in vitro in cultured cells
Protocol: Briefly, the KS Y-1 cells were obtained from mononuclear cells isolated from pleural effusion of an AIDS patient with KS in the lungs. After the depletion of T lymphocytes, monocytes/macrophages and fibroblasts using monoclonal antibodies against CD2, CD3, CD4, CD8, CD10 and CD14 membrane antigens and baby rabbit complement, the cells were cultured in the absence of exogenous growth factors to select for transformed cells. […] Clonogenic assays were performed by seeding the KS Y-1 or KS-SLK cells in methylcellulose (0.8%, v/v), incubating the cells for 10 days in the presence or absence of the hCC, β-hCG or β-hCG peptide preparations and then counting the number of well-formed colonies of triplicate wells formed after seeding with 5×10^4 cells.
To assay for activity against Kaposi's sarcoma cell growth in vitro, the clonogenic assay described herein was used with the KS Y-1 and KS-SLK cultured Kaposi's Sarcoma cell lines,.

[6] = test system: hematopoietic progenitor cells; assay: Hematopoietic progenitor clonogenic assays (CFU-GEMM, BFU-e, CFU-GM); format: cell-based, human; conditions: for Pro-hematopoiesis in vitro Enhancement: relative increase of hematopoietic colony cell number, hCG preparations 200 IU/ml, subunits and peptides 100 μg/ml
Protocol: The effect of hCG preparations and peptides was assayed on hematopoietic progenitor cells in vitro: Hematopoietic progenitor cells (2×10^5 cell/ml) were isolated from normal bone marrow and cord blood and seeded in methylcellulose. […] The hCG preparations were administered at 200 IU/ml and the β- and α-subunits and peptides were administered at 100 μg/ml. The native commercial preparation of hCG (APL™, Wyeth Ayerst) was pre-tested for anti-HIV and anti-KS activities. Aggregates containing more than 50 cells after 10 days of culture were counted as colonies.

Row | Molecule | inhibition of HIV-1 infection/replication in vitro (in words) [1] | HIV in vitro Inhibition [1] | inhibition of HIV RNA and protein expression [2] | KS in vivo [3] | survival at 10 days after birth [4] | KS in vitro [5] | Pro-hematopoiesis in vitro Enhancement [6] | inhibition of KS cell growth in clonogenic assays (in words) ([5]; KS Y-1 and KS SLK) | promotion of hematopoiesis (in words) ([6]; listed as native β-hCG) | promotion of hematopoiesis (in words) ([6]; listed as partially purified native β-chain)
1 | B1 | not to be active | − (“−” represents less than 10% effect) | − (“−” represents less than 10% effect) | − (“−” represents less than 10% effect) | failed to promote survival | − (“−” represents less than 10% effect) | − (“−” represents less than 10% effect) |  |  | 
2 | B2 | active | ++ (“++” represents greater than 40% effect) | ++ (“++” represents greater than 40% effect) | ++ (“++” represents greater than 40% effect) | promote survival | ++ (“++” represents greater than 40% effect) | ++ (“++” represents greater than 40% effect) | moderately well | pro-hematopoietic activity | directly promoted
